# Test results: patent US20190322750A1
# Molecular target: T1, ITGA6
# T1 sequence (P23229 whole entry, species assumed, looked up): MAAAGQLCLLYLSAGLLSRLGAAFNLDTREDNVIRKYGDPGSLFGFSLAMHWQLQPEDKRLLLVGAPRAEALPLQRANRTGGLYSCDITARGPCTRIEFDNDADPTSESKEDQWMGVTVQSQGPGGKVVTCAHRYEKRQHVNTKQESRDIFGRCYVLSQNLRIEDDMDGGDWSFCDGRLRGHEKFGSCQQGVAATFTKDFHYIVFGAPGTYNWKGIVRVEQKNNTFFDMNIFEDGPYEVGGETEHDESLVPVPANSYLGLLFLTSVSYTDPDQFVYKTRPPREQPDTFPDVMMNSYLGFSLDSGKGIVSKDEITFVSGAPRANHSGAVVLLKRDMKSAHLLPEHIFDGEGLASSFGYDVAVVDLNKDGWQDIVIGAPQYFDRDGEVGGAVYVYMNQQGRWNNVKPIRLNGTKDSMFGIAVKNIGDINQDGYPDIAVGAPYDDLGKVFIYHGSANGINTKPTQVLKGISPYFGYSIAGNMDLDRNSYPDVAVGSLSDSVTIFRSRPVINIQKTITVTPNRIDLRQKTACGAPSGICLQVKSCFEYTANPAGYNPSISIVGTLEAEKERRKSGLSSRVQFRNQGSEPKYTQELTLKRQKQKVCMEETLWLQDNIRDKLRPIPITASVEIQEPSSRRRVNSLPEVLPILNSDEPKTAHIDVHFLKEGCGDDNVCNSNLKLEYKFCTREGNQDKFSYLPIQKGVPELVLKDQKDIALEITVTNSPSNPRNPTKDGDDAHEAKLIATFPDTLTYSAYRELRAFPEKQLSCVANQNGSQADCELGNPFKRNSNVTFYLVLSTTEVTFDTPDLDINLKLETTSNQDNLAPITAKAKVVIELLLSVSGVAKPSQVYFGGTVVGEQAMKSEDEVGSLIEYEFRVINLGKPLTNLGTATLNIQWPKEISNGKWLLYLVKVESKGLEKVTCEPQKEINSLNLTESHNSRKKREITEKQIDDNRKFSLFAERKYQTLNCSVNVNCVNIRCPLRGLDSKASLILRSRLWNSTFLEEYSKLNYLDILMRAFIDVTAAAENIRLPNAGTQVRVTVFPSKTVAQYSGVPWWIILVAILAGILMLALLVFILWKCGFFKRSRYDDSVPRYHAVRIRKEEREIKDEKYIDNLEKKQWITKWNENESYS
# Assay: ELISA on coated antigen, column ITGA6
# Sequence of Avelumab (antibody) (VH): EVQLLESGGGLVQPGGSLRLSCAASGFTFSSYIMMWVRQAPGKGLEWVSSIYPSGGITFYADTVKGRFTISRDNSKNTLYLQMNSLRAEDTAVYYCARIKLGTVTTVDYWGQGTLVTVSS
# Sequence of Avelumab (antibody) (VL): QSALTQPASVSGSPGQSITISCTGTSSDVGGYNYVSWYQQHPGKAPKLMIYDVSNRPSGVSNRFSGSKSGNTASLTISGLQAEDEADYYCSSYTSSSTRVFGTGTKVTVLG
substance,measurement,value
Avelumab (antibody),absorbance at 490 nm,0.6
